Source: patent publication US20210317204A1 (ALMAC DISCOVERY, published 2021)
Positions count from the first letter of the chain named. Numbers in names are those of the source.

B1: P3A1-[G4S]5-P3A1 homodimer with His6Myc tag (VNAR)
chain: TRVDQTPRTATKETGESLTINCVLTDTSYGLYSTSWFRKNPGTTDWERMSIGGRYVESVNKGAKSFSLRIKDLTVADSATYYCKAREARHPWLRQWYDGAGTVLTVNGGGGSGGGGSGGGGSGGGGSGGGGSTRVDQTPRTATKETGESLTINCVLTDTSYGLYSTSWFRKNPGTTDWERMSIGGRYVESVNKGAKSFSLRIKDLTVADSATYYCKAREARHPWLRQWYDGAGTVLTVNQASGAHHHHHHGAEFEQKLISEEDL
notes: genetic fusion of two VNAR domains; also called P3A1 dimer 6xHis myc; P3A1-P3A1
B2: BA11 humanised VNAR (VNAR)
VNAR: TRVDQSPSSLSASVGDRVTITCVLTDTSYPLYSTYWYRKNPGSSNKEQISISGRYSESVNKGTKSFTLTISSLQPEDSATYYCRAMSTNIWTGDGAGTKVEIK
B3: BA11-S-maleimide-peg-fluorescein (VNAR)
VNAR: B2 VNAR
modifications: C-terminal thiol joined to maleimide-peg-fluorescein
notes: also called BA11-S-mal-Fl
B4: BA11 C-terminal cysteine derivative (VNAR)
VNAR: B2 VNAR
modifications: additional C-terminal cysteine from cysteine cleavage of the intein fusion
notes: also called BA11-cys
B5: BA11-aminoxy (VNAR)
VNAR: B2 VNAR
modifications: C-terminal aminoxy from dioxyamine cleavage of the intein fusion
B6: BA11-oxime-fluorescein (VNAR)
VNAR: B2 VNAR
modifications: C-terminal aminoxy joined by oxime to benzaldehyde-peg-fluorescein
B7: BA11 C-terminal thiol derivative (VNAR)
VNAR: B2 VNAR
modifications: C-terminal thiol from cysteamine cleavage of the intein fusion
notes: also called BA11-SH
B8: BA11-cys-maleimide-peg-fluorescein (VNAR)
VNAR: B2 VNAR
modifications: C-terminal cysteine joined to maleimide-peg-fluorescein
notes: also called BA11-cys-mal-Fl
B9: ROR1 ECD Peptide 2 (peptide)
peptide: RSTIYGSRLRINLDTTDTGYFQ
notes: synthetic linear peptide; insoluble in PBS, repeated in 25% DMSO
B10: P3A1-P3A1-S-mal-vcMMAE (VNAR)
chain: TRVDQTPRTATKETGESLTINCVLTDTSYGLYSTSWFRKNPGTTDWERMSIGGRYVESVNKGAKSFSLRIKDLTVADSATYYCKAREARHPWLRQWYDGAGTVLTVNGGGGSGGGGSGGGGSGGGGSGGGGSTRVDQTPRTATKETGESLTINCVLTDTSYGLYSTSWFRKNPGTTDWERMSIGGRYVESVNKGAKSFSLRIKDLTVADSATYYCKAREARHPWLRQWYDGAGTVLTVNQASGAHHHHHHGAEFEQKLISEEDLG
modifications: chain 1 pos 265 (C-terminal Gly, written G): carboxyl amidated with cysteamine (intein cleavage); its thiol joined by thioether to maleimide MC vc PAB MMAE
B11: P3A1-P3A1-Ox-MMAE (VNAR)
chain: B10 chain
modifications: chain 1 pos 265 (C-terminal Gly, written G): carboxyl derivatised with O,O'-1,3-propanediylbishydroxylamine (C-terminal aminoxy), joined by oxime to benzaldehyde PEG4 MMAE (non-cleavable)
notes: linker as for m77
B12: P3A1-P3A1-Ox-vcMMAE (VNAR)
chain: B10 chain
modifications: chain 1 pos 265 (C-terminal Gly, written G): carboxyl derivatised with O,O'-1,3-propanediylbishydroxylamine (C-terminal aminoxy), joined by oxime to benzaldehyde PEG2 vc PAB MMAE
notes: linker as for m77
B13: B1 G2 (loop-grafted humanised B1) (VNAR)
VNAR: TRVDQSPSSLSASVGDRVTITCVLTGANYGLASTYWYRKNPGSSNQERISISGRYSESVNKRTMSFTLTISSLQPEDSATYYCRAYPWGAGAPWLVQWYDGAGTKVEIKQ
notes: humanised VNAR
B14: B1 G1 (loop-grafted humanised B1) (VNAR)
VNAR: B13 VNAR with Q46K, R48Q, R62G, M64K
notes: humanised VNAR
B15: B1 humanised V7 (VNAR)
VNAR: B13 VNAR with T1A, R2S, L10A, V18L, L24V, S33A, R84K, V106L, I108V
notes: humanised VNAR; also called B1V7
B16: B1 humanised V5 (VNAR)
VNAR: B13 VNAR with T1A, R2S, L24V, S33A, R84K
notes: humanised VNAR; also called B1V5
B17: D3 humanised ADV2 (VNAR)
VNAR: TRVDQSPSSLSASVGDRVTITCVLTDTSYGLYSTSWFRKNPGTTDWERMSIGGRYSESVNKGAKSFTLTISSLQPEDSATYYCKAQSGMAISTGSGHGYNWYDGAGTKVEIKQ
notes: also called D3 AD V2
B18: P3A1 G1 dimer (VNAR)
chain: TRVDQSPSSLSASVGDRVTITCVLTDTSYGLYSTYWYRKNPGSSNKEQISISGRYSESVNKGTKSFTLTISSLQPEDSATYYCRAREARHPWLRQWYDGAGTKVEIKGGGGSGGGGSGGGGSGGGGSGGGGSTRVDQSPSSLSASVGDRVTITCVLTDTSYGLYSTYWYRKNPGSSNKEQISISGRYSESVNKGTKSFTLTISSLQPEDSATYYCRAREARHPWLRQWYDGAGTKVEIKQASGAHHHHHHGAEFEQKLISEEDLG
notes: humanised VNAR dimer
B19: P3A1 V1 dimer (VNAR)
chain: TRVDQSPSSLSASVGDRVTITCVLTDTSYGLYSTSWFRKNPGTTDWERMSIGGRYVESVNKGAKSFTLTISSLQPEDFATYYCKAREARHPWLRQWYDGAGTKVEIKGGGGSGGGGSGGGGSGGGGSGGGGSTRVDQSPSSLSASVGDRVTITCVLTDTSYGLYSTSWFRKNPGTTDWERMSIGGRYVESVNKGAKSFTLTISSLQPEDFATYYCKAREARHPWLRQWYDGAGTKVEIKQASGAHHHHHHGAEFEQKLISEEDLG
notes: humanised VNAR dimer
B20: P3A1 G2 dimer (VNAR)
chain: B19 chain with S35Y, F37Y, V56S, F78S, K84R, S167Y, F169Y, V188S, F210S, K216R
notes: humanised VNAR dimer
B21: D3 humanised EL V2 (VNAR)
VNAR: ASVNQSPSSLSASVGDRVTITCVLTDTSYGLYSTSWFRKNPGTTDWERMSIGGRYVESVNKRAKSFTLTISSLQPEDFATYYCKAQSGMAISTGSGHGYNWYDGAGTKVEIK
notes: also called D3 EL V2
B22: D3 humanised EL V4 (VNAR)
VNAR: B21 VNAR with F37Y, R38Q, K39Q, N40K
notes: also called D3 EL V4

The binders below were run against T1, human ROR1 extracellular domain-Fc fusion (human, UniProt Q01973 30-406) (assay: SPR).
T1 construct: extracellular domain; also called hROR1; ROR1-hFc

Binder | Kd | koff | kon
B1 | 0.35 nM | 0.000637 s⁻¹ | 2.08e+06 M⁻¹ s⁻¹

These binders were tested against T2, cynomolgus serum albumin (cynomolgus) (assay: SPR, CSA on chip, pH 7.4).
T2 construct: also called CSA; Cyano
T2 sequence (A2V9Z4 25-608): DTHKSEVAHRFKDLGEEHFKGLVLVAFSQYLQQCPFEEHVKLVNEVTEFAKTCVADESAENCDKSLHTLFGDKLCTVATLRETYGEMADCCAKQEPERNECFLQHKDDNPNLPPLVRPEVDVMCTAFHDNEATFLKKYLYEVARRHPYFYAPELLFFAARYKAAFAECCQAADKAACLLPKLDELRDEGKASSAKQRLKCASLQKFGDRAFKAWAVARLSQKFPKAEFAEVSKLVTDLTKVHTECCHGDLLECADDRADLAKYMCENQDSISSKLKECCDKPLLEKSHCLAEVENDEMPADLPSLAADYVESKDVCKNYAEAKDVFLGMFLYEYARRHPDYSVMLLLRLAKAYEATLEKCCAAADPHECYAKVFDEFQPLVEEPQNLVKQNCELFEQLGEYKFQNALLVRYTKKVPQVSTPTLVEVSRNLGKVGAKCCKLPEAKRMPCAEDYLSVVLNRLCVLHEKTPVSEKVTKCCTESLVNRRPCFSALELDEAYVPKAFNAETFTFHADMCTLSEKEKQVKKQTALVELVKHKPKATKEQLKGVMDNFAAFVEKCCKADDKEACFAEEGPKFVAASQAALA

Binder | Kd
B2 | 3.36 nM
B3 | 2.3 nM
B4 | 2.1 nM
B5 | 7.97 nM
B6 | 1.75 nM
B7 | 3.41 nM
B8 | 3.68 nM

Each binder was assayed against T3, D3-[G4S]5-D3 homodimer (assay: competition ELISA: D3-D3 pre-incubated with the peptide (25% DMSO), residual binding to coated huROR1-Fc).
T3 construct: also called D3-D3; D3D3; not shown: C-terminal His6 or His6Myc tag (His6Myc in flow cytometry)
T3 sequence (chain, as listed by the source): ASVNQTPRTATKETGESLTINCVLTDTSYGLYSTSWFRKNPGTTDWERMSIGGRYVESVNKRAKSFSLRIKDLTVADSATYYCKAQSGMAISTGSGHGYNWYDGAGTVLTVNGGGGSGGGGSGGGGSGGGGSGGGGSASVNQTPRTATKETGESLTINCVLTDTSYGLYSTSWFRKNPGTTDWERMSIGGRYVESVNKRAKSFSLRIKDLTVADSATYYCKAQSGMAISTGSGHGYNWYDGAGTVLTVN

Binder | binding result
YMESLHMQGEIENQI (synthetic linear peptide) [ROR1 ECD Peptide 1] | no binding
CQPWNSQYPHTHTFTALRFP (synthetic linear peptide) [ROR1 ECD Peptide 3] | no binding
B9 | no binding
QCVATNGKEVVSSTGVLFVKFGPPPTASPGYSDEYE (synthetic linear peptide) [ROR1 ECD Peptide 4] | no binding

Target: T1, human ROR1 extracellular domain-Fc …
Assay: SPR
Remark: another data set of the same source

Binder | Kd | koff | kon
B10 | 0.59 nM | 0.0026 s⁻¹ | 4.96e+06 M⁻¹ s⁻¹
B11 | 0.78 nM | 0.0032 s⁻¹ | 4.2e+06 M⁻¹ s⁻¹
B12 | 1.43 nM | 0.00277 s⁻¹ | 2.07e+06 M⁻¹ s⁻¹
B1 | 1.61 nM | 0.00296 s⁻¹ | 1.86e+06 M⁻¹ s⁻¹

Each binder was assayed against T4, B1 VNAR (C-terminal His6 or His6Myc tag, not said which) (assay: competition ELISA: B1 pre-incubated with the peptide, residual binding to coated huROR1-Fc).
T4 construct: shark VNAR domain; also called VNAR B1; B1 monomer
T4 sequence (chain, as listed by the source): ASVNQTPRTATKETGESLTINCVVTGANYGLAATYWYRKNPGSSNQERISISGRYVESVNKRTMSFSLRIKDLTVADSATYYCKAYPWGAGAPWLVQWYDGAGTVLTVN

Binder | binding result
YMESLHMQGEIENQI (synthetic linear peptide) [ROR1 ECD Peptide 1] | no binding (tested: 10 uM)
CQPWNSQYPHTHTFTALRFP (synthetic linear peptide) [ROR1 ECD Peptide 3] | no binding (tested: 10 uM)
B9 | no binding (tested: 10 uM)
QCVATNGKEVVSSTGVLFVKFGPPPTASPGYSDEYE (synthetic linear peptide) [ROR1 ECD Peptide 4] | no binding (tested: 10 uM)

Each binder was assayed against T5, D3 VNAR (assay: competition ELISA: D3 pre-incubated with the peptide (25% DMSO), residual binding to coated huROR1-Fc).
T5 construct: shark VNAR domain; also called D3 WT; D3 monomer; not shown: C-terminal His6 or His6Myc tag (His6Myc in flow cytometry)
T5 sequence (chain, as listed by the source): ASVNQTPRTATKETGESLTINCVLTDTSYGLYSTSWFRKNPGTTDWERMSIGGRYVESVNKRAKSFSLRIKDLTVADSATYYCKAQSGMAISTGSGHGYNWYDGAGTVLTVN

Binder | binding result
YMESLHMQGEIENQI (synthetic linear peptide) [ROR1 ECD Peptide 1] | no binding
CQPWNSQYPHTHTFTALRFP (synthetic linear peptide) [ROR1 ECD Peptide 3] | no binding
B9 | no binding
QCVATNGKEVVSSTGVLFVKFGPPPTASPGYSDEYE (synthetic linear peptide) [ROR1 ECD Peptide 4] | no binding

What follows are binders tested against T2, cynomolgus serum albumin (assay: SPR, CSA on chip, pH 5.5).

Binder | Kd
B2 | 1.11 nM
B3 | 7.01 nM
B6 | 5.54 nM
B7 | 6.74 nM
B8 | 8.21 nM

The binders below were run against T1, human ROR1 extracellular domain-Fc … (assay: SPR, hROR1 ECD-Fc on chip).

Binder | Kd | koff | kon
B13 | 45.9 nM | 0.0079 s⁻¹ | 185000 M⁻¹ s⁻¹
B14 | 82.8 nM | 0.0162 s⁻¹ | 220000 M⁻¹ s⁻¹
B15 | 0.77 nM | 5.54e-05 s⁻¹ | 77400 M⁻¹ s⁻¹
B16 | 0.74 nM | 3.85e-05 s⁻¹ | 52000 M⁻¹ s⁻¹
B17 | 51.6 nM | 0.00236 s⁻¹ | 45800 M⁻¹ s⁻¹
B18 | 0.43 nM | 0.00147 s⁻¹ | 4.3e+06 M⁻¹ s⁻¹
B19 | 0.18 nM | 0.000846 s⁻¹ | 4.78e+06 M⁻¹ s⁻¹
B20 | 0.77 nM | 0.00119 s⁻¹ | 1.88e+06 M⁻¹ s⁻¹
B21 | 18.9 nM |  | 1.85e+06 M⁻¹ s⁻¹
B22 | 58.5 nM | ~0.0545 s⁻¹ | 1.38e+06 M⁻¹ s⁻¹
